This note sets out measurements from the DeepSol protein solubility set.

The series in a line: soluble on expression in E. coli; label from the status in PepcDB or PDB records.
As for “HMSICTSEEWQGLMQFTLPVRLCKEIELFHFDIGPFENMWPGIFVYMVHRSCGTSCFELEKLCRFIMSVKKNYRRVPYHNWKHAVTVAHCMYAILQNNHTLFTDLERKGLLIACLCHDLDHRGFSNSYLQKFDHPLAALYSTSTMEQHHFSQTVSILQLEGHNIFSTLSSSEYEQVLEIIRKAIIATDLALYFGNRKQLEEMYQTGSLNLNNQSHRDRVIGLMMTACDLCSVTKLWPVTKLTANDIYAEFWAEGDEMKKLGIQPIPMMDRDKKDEVPQGQLGFYNAVAIPCYTTLTQILPPTEPLLKACRDNLSQWEKVIRGEETATWISSPSVAQKAAASED”, the “soluble on expression in E. coli” value is “soluble”.
For “MGSDKIHHHHHHMSRLIEQIKQKDACAFTHGGKFHADDVFSSALLLYINPEISITRGNSVPDDFTGIVFDIGRGEFDHHQKDSRIRENGVPYAAFGLLWEAVGADILGKELAVKFDESFVQPLDNNDNTGEKNELATLIGNFNPSWDYEGGSDEAFFQAVSVAGMILENKFERYRGNERADKRVEEVLAKHDPASRILVLPEFIPCQKALSETDIAFVIFPSNRGGFCIQPQKREYSMNYKCSFPAEWLGLEGEELVNATGIPGAIFCHKGGFIMTVKEQDEAVKACEKALSLHKDSSVIVWYGSKGDTAAMACDSQTDELLINVAKARGIKGVHICHVDAMPVPQLELTELDSETAYAEVLMEKPQWKAYVKEQVKQIVKYRPEAVYVEGNAFETYPVIRALRKKHIPVLTMIENKEKKIMVRIP”, the “soluble on expression in E. coli” value was “not soluble”.
“NTFYEITLEDESVLLDEVVAIGYGTQSKATVTSGVVSVKKAELMSSVSASPLNNLQGKVAGLDIRQTTGQPGAQPVVLIRGGSTDPANDSPLFVIDGVVRSNMNGLNQEDIESMEVLKDAASAAIYGAKAANGIILITTKQGSSKD”: the “soluble on expression in E. coli” value is “not soluble”.
For “MATAHYHGSCQCGSVSFEVDADLDHTVICNCSRCKRLGSTLAFAPREKFTLLSGEDKLSEYLFNKHKIHHFFCSTCGIESFAYADGPDGTPMVAVNANCLDGVDPRALKSQAFDGAAA”, the “soluble on expression in E. coli” value is “soluble”.
With “MGSDKIHHHHHHMDAPYVSMWTSCSGGCSNNMYQLPANYPMKEKRDNEAEHTEGRLSKNERIERQLNSLYDFRFNIVKSRTEYRAANTSGLYQPVTKFALNSFRRKLDVTAGITTSAENIRMILESDFANKVHPIREYLTALPLLNPAGHGYIKKLLNTVQVANPGEWEEYFTKWLVGVVANAMNDTGCQNHTCLVLTGDNQGQFKTWWLDNLCPSSLKNYLFTGKIDPQSKDILTLIAEYLFINIDDQLKELNKQNENALKNLITTPAVKYRRPYDIYIEEYPHLASFMASVNGNEFLTDPTGNRRFLPFEVLHIDKPTAESINMDNVYSEIMYLYRQGVRYWFNDAEIEELHLTNAEFEVQTVEFEMLMQYFEKPTEEEESLFFMTTAQILTCLRDVCPMQLSEKRLGEALRKAGFKRVQKRISNCNYSVYGYRIKPVSIPYTDNDYG”, the “soluble on expression in E. coli” value is on record as “not soluble”.
In the case of “MSLSGDLVSLKVVVFDIGNVLLRWDPRLLYRKIFSEENQMEWFLSQVCSEAFNRKLDGGAPFAAAIEALVAQFPDFSKEIRAYDERWLETTSGPIPETFAILEELVAEGVPLYAITNFSYEKFEVARCAFELFDRFDGIVVSGAEGVVKPEAPIYRLLLDRYGLDASDCLFIDDSAANVDGARAVGMQGYHYRDPISLRWKLTECGLLCRKSDLNDKGQVLEKREGHHHHHH” it was “soluble”.
“MSLKKFLKMFFPHDGIYEVLVGTSGIKPIIKPLGIIVEANELRSKIYKSTLTYSNLEKNNKCSIHVTLDTTFFILSMLDKLTFSIDSDYNVPVLKNLNVIYAECMKTSSTDPSIFTINPLDLEINSNLTRAYNRGDYISVDFLVNYTRLDIYKGEDLEKLVRILEYEWSVIKRTSQYTSSLLEEILNKMRSKGFKLDEGHHHHHH”: the “soluble on expression in E. coli” value was “not soluble”.
In the case of “MIFRAKANKALDRAEDPRETLDYSYQKQLELLQKVRRGVADVATSRKRLELQLNQLQSQSGKLEDQGRKALALGREDLAREALSRRAALQQQVTDLETQHATLQGEEEKLTLAAQRLQAKVDAFRTKKETIKATYTAAQAQTRIGEAFSGISEEMGDVGLAIQRAEDKTAQLQARAGAIDELLASGALDDQSGMHKDDIQAELDRLSGGTDVELELQRMKAELAGGSTSDRQAIEGGQGQGEASSQSQQPQDTPRFDKQLEHHHHHH” it was “not soluble”; in that of “MAHHHHHHMTELVPEAEVTFNCGSPSFPYVRVYRCFKTTNSGMLYRLEDDKGRWAFYNDTPLTVFNVYVKFNADSVVTSDTDVALEMTQGEWDYWATTVVLPGHTQRFVEGTISSFLLNFASEGELAKDVTFVNGTPTVGYDRVYRCFKQNANGMLFRLVKVERPGNECVWNFYNDSRELSVEVELTLIEKDSAKPLGDTQVIPPPDGVGVALYKIVVPPLKTVPFLRGHPRFSKQSYVAKSMYDENMLDASEITFENGQPDRAVIDYPRTKVFRGFNNNGNGLAFLLVDPEEKKWAFYNDTTNYNVTATVRFAAGSVYKAAANTRVEVDPAVEGGTVCTITVMPLATELFITEGNPEQYQISLSAECSTGPKPEENPDYQNGQPDTKVMLRWEKVYRCFKNRGNGLLFRLVGDNDRRWGFYNDTTDFIFTVTVSFENGETVKTLGNTSVSEDPELGKVFTLEVAPLSTEVFVFGDLSGYKTRFAARSVRCA”, “not soluble”; in that of “MGSSHHHHHHSSGLVPRGSHMKLYIIGAGPGDPDLITVKGLKLLQQADVVLYADSLVSQDLIAKSKPGAEVLKTAGMHLEEMVGTMLDRMREGKMVVRVHTGDPAMYGAIMEQMVLLKREGVDIEIVPGVTSVFAAAAAAEAELTIPDLTQTVILTRAEGRTPVPEFEKLTDLAKHKCTIALFLSSTLTKKVMKEFINAGWSEDTPVVVVYKATWPDEKIVRTTVKDLDDAMRTNGIRKQAMILAGWALDPATPWLSGLGENPAIRAMFVAHLHQALNMAVEEAA”, “soluble”.
For the sequence “MSLCPLTPVGKYLLLPLWLGVRPFFRALFRIEVIGKENIPEGACIVASNHRSHLDPPVLNAVFPEPLVFLAKEELFKPPFGGILKHMRAIPLRRGSEDISTLEECVSLLKLGCKIGIFPEGTRANPGEFKRAKPGVGFLAINSGFPVLPVYIDGTDRAFPRGKKFPKPFVKVSVVIGKPLEFKGLEPSVKNYKRVANEIMEEIKKLAQSLHRKEGHHHHHH”, the “soluble on expression in E. coli” value is reported as “soluble”.
Regarding “MNRREVRCAFSASKAARAQLLLRGKVRLEPLPTRPRTVLGLDASYSAKDGVGVGAAVLISLETLEPVDCRVYISRVCIPYIPGLLAFRELAVMAPAAAALSAEADVVMVDGHGIAHPRRFGIASHVGVILERPSIGVAKKKLVGTLVEGPGGMYVVQDGERLAIVLGTRPREVYVSPGHRITLEEAASIARATIRPGGWMPEPTRLADVISKALKTIIGGQSLINSALASLCRVKLGPRLEELERPLRRAGLEVELEHHHHHH”, the “soluble on expression in E. coli” value is recorded as “not soluble”.
In the case of “MATMLSRYFLLTVAALFAQSASAIEVLTSIKPIQMITYELMLGTGTPDVLLPSGASPHDYALRPSDVKRIQQADLVIWFGQDLEPFMSKLLEGRTSALTLSQVPNLALREYGEEEQHEHDGHHHGHYDPHFWLGIGPVGQVASAITAKLIELDADQQQQYQDNLVRFLANLAEQDNTIGEKLKPVTTVPYYVFHDAYGYFEQHFALNNLGHFTVSPERKPGAKTLIAIKKTLNDQLAKCVFSEPQFEPAIIETVVRGTSAKIGVLDPLGISIELQAGSYFAFLNSLAESYYACLSQS”, the “soluble on expression in E. coli” value was “not soluble”.
In the case of “SLSIYSFSQITRSLFLSNGVAANDKLLLSSNRITAIVNASVEVVNVFFEGIQYIKVPVTDARDSRLYDFFDPIADLIHTIDMRQGRTLLHCMAGVSRSASLCLAYLMKYHSMSLLDAHTWTKSRRPIIRPNNGFWEQLINYEFKLFNN” it was “not soluble”; in that of “MGSDKIHHHHHHMQKHARVIYNPTSGREIIKKNLADVLSILEQAGYVTSAHATTAEPDDAKHAAEEAVRNRFDLVVAAGGDGTINEVINGIAEKEYRPKVGIIPTGTTNDFARALHVPRDVIKATKIIAAGQSVAMDIGKANETYFINIGGGGRLTELTYDVPSRLKTMLGQLAYYLKGIEMLPSLKATKVKVEYDQGVFEGEVMFFLLGLTNSIGGFEKIAPDAKLDDGKFSLIIVKKVNLAEFIRLVTLALRGDHIKEPNVIYVKSEKVIVNSEDKMLINLDGELGGETPMEFRNLRQHIEFFASVDDIPATDLFIKENS”, “not soluble”.
